Experimental data as given in patent US12427188B2, “Pyocyanine demethylases and related phenazine degrading agents compositions, methods and systems for interfering with viability of bacteria” (priority 2020, dated 2025).
Residue numbers refer to the chain shown, from its start. Names and notes keep the numbering of the source.

Experiments:
[1] = Protein yield of PodA variants purified from inclusion bodies of overexpression culture; conditions: purified from inclusion bodies, per L of E. coli overexpression culture
Description: Protein overproduction and purification of soluble and inclusion body fractions. Plasmids coding for proteins of interest were transformed into E. coli BL21 […]. […]. Cultures were grown at 37° C. with shaking to an optical density of 0.4 (OD600 nm) and plasmid expression was induced with IPTG (50 μM) and shaken overnight at 16° C. Cells were harvested by centrifugation at 5,000×g for 10 min in a Beckman Coulter Avanti J-20 XOI refrigerated centrifuge using a JLA-8.1000 rotor at 4° C. Cell pellets were stored at −80° C. until used.
For purification of PodA from inclusion bodies, the pellets remaining following lysis and centrifugation at 40,000×g were resuspended in 20 mL of detergent buffer [50 mM HEPES (pH 7.5) and 1% Triton-X (v/v)] using a Bio-gen PRO200 cell homogenizer (PRO Scientific). Sample was spun for 15 min at 40,000×g at 4° C. in a Beckman Coulter Avanti centrifuge with a JA-25.50 rotor. Supernatant was discarded and the remaining cell pellet was resuspended in 5 mL of buffer [50 mM HEPES (pH 7.5), 500 mM NaCl] using a cell homogenizer, supplemented with lysozyme (200 μg mL^−1), and incubated for 10 min. Volume was increased to 20 mL with HEPES (50 mM, pH 7) and sample was spun for 40,000×g at 4° C. for 15 min. Supernatant was discarded and pellet was homogenized in 10 mL of denaturing buffer 50 mM HEPES (pH 7.5), 500 mM NaCl, and 8M urea) and incubating rocking overnight. The sample was spun at for 40,000×g at 25° C. for 30 min and supernatant was incubated with 1 mL HisPur Ni-NTA resin (Thermo Fisher Scientific) on a rocking platform for 10 min. Beads were allowed to settle without shaking, supernatant was discarded, and resin was pipetted into glass gravity columns. Resin was washed with 15 mL of denaturing buffer, followed by an elution with denaturing buffer supplemented with imidazole (500 mM). Fractions were analyzed by SDS-PAGE and those containing protein were combined into SnakeSkin 3.5 K MWCO dialysis tubing (Thermo Fisher Scientific). Urea was slowly dialyzed out in HEPES (50 mM, pH 7.5) and NaCl (500 mM) by lowing urea concentrations by 1 M increments. Each step was dialyzed at RT for 30 min. Protein was dialyzed in HEPES (50 mM, pH 7.5), NaCl (500 mM), and imidazole (20 mM) overnight at 4° C. The following day, protein was cleaved for 3 h at 25° C. with TEV protease (1:50 mg:mg ratio of TEV to PodA). The sample was applied to a HisPur gravity column and cleaved protein in the flow thru was confirmed by SDS-PAGE. Cleaved PodA protein was then dialyzed for storage for 3 h at 4° C. in HEPES (50 mM pH 7.5), NaCl (250 mM) and finally in HEPES (50 mM, pH 7.5), NaCl (100 mM), and glycerol (20%, v/v). Protein concentration was established on a NanoDrop™ using the extinction coefficient and MW of each protein. Protein was drop frozen in LN2 and stored at −80° C. until use.

[2] = Continuous spectrophotometric PYO demethylation assay (specific activity and kinetics of PodA); assay type: biochemical; conditions: for catalytic efficiency compared with PodA^WT: Michaelis-Menten kinetics, 3 μM protein
Description: Specific activity and kinetics of PodA. To determine specific activity and kinetic parameters of PodA for PYO, a continuous spectrophotometric assay monitoring the absorbance of PYO (690 nm) was utilized. Briefly, assays were performed at 25° C. in 100 μL reaction volumes in 96-well plates and reactions were monitored at 690 nm over 10 min. Reaction mixtures contained Phosphate buffer (50 mM, pH 6.0), ethylene glycol (1%, v/v), protein (3 μM) and substrate (for specific activity, 100 μM, for kinetics, varying). Data were acquired using the SpectraMax® M3 Microplate Reader (Molecular Devices) using the Soft Max Pro software every 10 s over 10 min. Path lengths for each well were calculated using Soft Max Pro endpoint readings and slopes were corrected for path lengths of 1 cm.
Specific activity was calculated from the slope of the linear range of (ΔOD690 min^−1) using Beer's Law (A=εcl) with a path length of 1 cm and the molar extinction coefficient of PYO (4,130 M^−1 cm^−1). Equation was solved for c, giving specific activity in nmol min^−1 mg^−1 of PodA. For kinetic parameters, graphs of initial velocity (μM s^−1) versus substrate concentration (μM) were plotted using Prism v8 (GraphPad). The Michaelis-Menten kinetics model was used to determine Km and Vmax. The turnover number (kcat) was determined using the following equation: Vmax=kcat[E], where [E] was the concentration of PodA added. All spectrophotometric assays mentioned above were completed thrice, each in technical triplicate with a representative data set shown. Error bars represent standard deviation as calculated by Prism v8 (GraphPad). Standard deviation for kcat and Kcat KM^−1 was calculated using standard formulas for propagation of error.

[3] = pH 6, 1% ethylene glycol, PodA 3 μM, substrate PYO

B1: PodA8: Designed PodA41-162 variant: A53N, I73R, A87V, T91V, A129V (protein)
chain: VTMTLDVKNDQVNKHDFGKPGMDVGDMDIFSDRLSVDGKQVGYDGGVCFFVNVTPDNPMTYCELTIHLDAGEIFARSLTPHTLAPFTMVITGGTGEYANSKGELTVSGVATPDEKYELKLTK
With B1 the Yield [1] was 2.1 mg/L^−1, the “catalytic efficiency compared with PodA^WT” value [2] was “no change in catalytic efficiency” and the “PYO demethylation activity relative to wild type” value ([2]; PYO 50 μM, PodA variants 3 μM) was “wild-type activity was maintained”.

B2: PodA2: Designed PodA41-162 variant: I73T, A87V, T91V, M99V, A129V (protein)
chain: B1 chain with N13A, R33T, M59V
In the case of B2, the Yield [1] is reported as 16.1 mg/L^−1.

B3: PodA7: Designed PodA41-162 variant: I73L, A87I, T91V, M99T, A129V (protein)
chain: B1 chain with N13A, R33L, V47I, M59T
B3 showed a Yield [1] of 4.1 mg/L^−1.

B4: PodA3: Designed PodA41-162 variant: I73K, A87V, T91V, M99V, A129V (protein)
chain: B1 chain with N13A, R33K, M59V
Molecule B4 has a Yield [1] of 9.45 mg/L^−1.

B5: PodA6: Designed PodA41-162 variant: I73R, A87V, T91V, M99V, A129T (protein)
chain: B1 chain with N13A, M59V, V89T
Molecule B5 has a Yield [1] of 4.4 mg/L^−1.

B6: PodA5: Designed PodA41-162 variant: I73L, A87I, M99V, A129V, K141T (protein)
chain: B1 chain with N13A, R33L, V47I, V51T, M59V, K101T
B6 showed a Yield [1] of 9.9 mg/L^−1.

B7: PodA9: Designed PodA41-162 variant: I73K, A87V, T91V, A129V, K141T (protein)
chain: B1 chain with N13A, R33K, K101T
In the case of B7, the Yield [1] is reported as 1.28 mg/L^−1.

B8: WT PodA30-162: Truncated wild-type pyocyanin demethylase PodA, residues 30-162, SEQ ID NO: 2 (protein)
chain: MDGRGGRSTTEPVTMTLDVKNDQVAKHDFGKPGMDVGDMDIFSDILSVDGKQVGYDGGACFFTNVTPDNPMTYCELTIHLDAGEIFARSLTPHTLAPFTMAITGGTGEYANSKGELTVSGVATPDEKYELKLTKAENLYFQ
modifications: Sybthetic Polypeptide
With B8 the “pH of optimal activity” value ([2]; buffers pH 5.5-10.0, PodA 3 μM, PYO 100 μM) was 6, the “Effect of salts (NaCl and KCl) on activity” value ([2]; cystic fibrosis sputum range, 66 mM Na+, 15 mM K+) was “did not inhibit or enhance” and the “Effect of higher glycerol concentrations on the activity increase” value ([2]; glycerol 5 to 20%) was “reversed this activity increase”. The Km [2, 3] was 372 µM, the catalytic efficiency [2, 3] was 4.73±0.24×10^2 M^−1 s^−1 and the kcat [2, 3] was 0.176 ± 0.003 s⁻¹. For the same molecule, the “Effect of slight increase in viscosity (ethylene glycol or glycerol 1% v/v) on activity” value ([2]; pH 6, PodA 3 μM, PYO 100 μM) was “enhanced”, the catalytic efficiency ([2]; protein from soluble fraction) was 1.05±0.093×10^2 M^−1 s^−1 and the catalytic efficiency ([2]; protein purified from inclusion bodies, denatured and refolded) was 1.14±0.25× 10^2 M^−1 s^−1.

B9: PodA1030-162: PodA10 of SEQ ID NO: 2: A24N, I44T, A58V, M70V, A100T (protein)
chain: B8 chain with A25N, I45T, A59V, M71V, A101T
modifications: Sybthetic Polypeptide
With B9 the “catalytic efficiency compared with PodA^WT” value [2] was “slight increase in efficiency”.

B10: PodA830-162: PodA8 of SEQ ID NO: 2: A24N, I44R, A58V, T62V, A100V (protein)
chain: B8 chain with A25N, I45R, A59V, T63V, A101V
modifications: Sybthetic Polypeptide
For B10, the “catalytic efficiency compared with PodA^WT” value [2] was “no change”.
